Data: PMC3250504, “Identification and Characterization of a Mef2 Transcriptional Activator in Schistosome Parasites”

T1: MBP-SmMef2 (Schistosoma mansoni, UniProt G8JE45 1-730)
T1 sequence: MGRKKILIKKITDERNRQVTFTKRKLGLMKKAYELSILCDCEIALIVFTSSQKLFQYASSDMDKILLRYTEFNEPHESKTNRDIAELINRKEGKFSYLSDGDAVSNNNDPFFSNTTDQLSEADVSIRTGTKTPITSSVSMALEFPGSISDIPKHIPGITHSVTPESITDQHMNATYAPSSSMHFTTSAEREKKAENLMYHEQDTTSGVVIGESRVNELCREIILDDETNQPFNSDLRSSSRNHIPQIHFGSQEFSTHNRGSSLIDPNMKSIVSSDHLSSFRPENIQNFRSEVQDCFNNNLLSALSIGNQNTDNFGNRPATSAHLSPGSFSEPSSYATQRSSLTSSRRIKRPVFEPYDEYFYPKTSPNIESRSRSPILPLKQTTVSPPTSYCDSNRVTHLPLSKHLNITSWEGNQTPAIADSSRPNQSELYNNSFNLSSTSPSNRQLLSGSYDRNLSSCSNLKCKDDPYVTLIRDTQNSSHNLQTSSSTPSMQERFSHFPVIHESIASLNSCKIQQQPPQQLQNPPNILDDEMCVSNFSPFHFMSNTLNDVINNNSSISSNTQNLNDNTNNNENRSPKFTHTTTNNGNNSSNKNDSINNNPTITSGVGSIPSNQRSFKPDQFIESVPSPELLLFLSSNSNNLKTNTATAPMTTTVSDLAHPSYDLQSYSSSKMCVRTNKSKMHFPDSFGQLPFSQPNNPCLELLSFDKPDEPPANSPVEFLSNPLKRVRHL


Key:
MBP-SmMef2 [1] = molecular target: T1, MBP-SmMef2; assay: EMSA; 5 mM MgCl2, poly(dI-dC); LightShift kit 1x binding buffer, 2.5% glycerol, 5 mM MgCl2, 50 ng/uL poly(dI-dC), 0.05% NP-40, 180 fmol hot dsDNA, 1.4 ug protein, 20 min room temperature; 5%; settings: protein: recombinant; tags: N-terminal MBP (pMAL-c5x); chain copies: 2; label: 5' biotin on forward strand (hot); blunt
MBP-SmMef2 [2] = molecular target: T1, MBP-SmMef2; assay: competition; 200x cold vs labeled AT12 or AT13; LightShift kit 1x binding buffer, 2.5% glycerol, 5 mM MgCl2, 50 ng/uL poly(dI-dC), 0.05% NP-40, 180 fmol hot dsDNA, 1.4 ug protein, 20 min room temperature; 5%; settings: protein: recombinant; tags: N-terminal MBP (pMAL-c5x); chain copies: 2; blunt

Row | Binder | binding result (MBP-SmMef2 [1]) | binding result (MBP-SmMef2 [2])
1 | AT11 (Drosophila Actin57B Mef2 site) (dsDNA) DNA 1: GCTGAAGGATCTATTTTTAGGCGGATCGGC DNA 2: GCCGATCCGCCTAAAAATAGATCCTTCAGC | binds | –
2 | AT12 (common Mef2 consensus) (dsDNA) DNA 1: GCTGAAGGATCTAAAAATAGGCGGATCGGC DNA 2: GCCGATCCGCCTATTTTTAGATCCTTCAGC | binds | –
3 | AT13 (M. polymorpha Mef2 site) (dsDNA) DNA 1: GCTGAAGGATCTATATATAGGCGGATCGGC DNA 2: GCCGATCCGCCTATATATAGATCCTTCAGC | binds | –
4 | AT14 (Ndt80 MSE negative control) (dsDNA) DNA 1: GCTGAAGGATGTCACAAAATGCGGATCGGC DNA 2: GCCGATCCGCATTTTGTGACATCCTTCAGC | – | no binding
